Source: patent publication US20140072544A1, “POLYBACTERIAL PREPARATION WITH HEALTH BENEFITS: ANTIOXIDANT EFFECT, REDUCTION OF CHOLESTEROL CONCENTRATION, ANTI-INFLAMMATORY IMMUNOMODULATING EFFECT AND RELEASE OF BIOACTIVE PEPTIDES INHIBITING ANGIOTENSIN-CONVERTING ENZYME” (LB BULGARICUM PLC, priority 2011, published 2014)

Target: angiotensin-converting enzyme (ACE) (Homo sapiens, UniProt P12821)
Assay: ACE-inhibiting activity of peptide extracts
Format: biochemical
Details: purified single peptide released by L. helveticus A1 (HPLC fractionation, ion exchange)
Experimental: Purified strains with inoculum of 0.1% are incubated for 18 hours in 9% skimmed milk at 37° C. After adjusting the pH to 4.3 with 50% lactic acid the samples are centrifuged (5000 g, 10 min). Supernatant is dosed at reverse-phase cartridge and washed with water. The process is followed by elution with 60% acetonitrile in 0.1% trifluoroacetic acid and then evaporation and reconstitution of the resulting extract. The extract or its dilutions are analyzed for inhibition of ACE.
A total peptide extract is prepared. Enzymatic reaction is carried out by a conventional test, but using different dilutions of peptide extracts as their volume is 20 μl. The enzyme solution was 40 μl with an activity of 0.1 U/ml. The substrate hipuril-histidil-leucine is dissolved in borate buffer at pH 8.3 and has a volume of 190 μl. The final concentration of the substrate is 6 mM, and those of sodium chloride is 300 mM. The reaction is conducted at 37° C. for 30 minutes. The seizing is performed with 100 microliters of 4 n HCl, and the extraction of the freed hippuric acid is done with 1 ml of ethyl acetate. After evaporation of the solvent, the residue is dissolved in 1 ml of water and tested spectrophotometrically at 228 nm. […]
where A is the absorbance under the upper reaction, C is the absorbance without enzyme, B is the absorbance without the involvement of peptide extracts. […]

Sequence of angiotensin-converting enzyme (ACE) (P12821 30-1306, species assumed): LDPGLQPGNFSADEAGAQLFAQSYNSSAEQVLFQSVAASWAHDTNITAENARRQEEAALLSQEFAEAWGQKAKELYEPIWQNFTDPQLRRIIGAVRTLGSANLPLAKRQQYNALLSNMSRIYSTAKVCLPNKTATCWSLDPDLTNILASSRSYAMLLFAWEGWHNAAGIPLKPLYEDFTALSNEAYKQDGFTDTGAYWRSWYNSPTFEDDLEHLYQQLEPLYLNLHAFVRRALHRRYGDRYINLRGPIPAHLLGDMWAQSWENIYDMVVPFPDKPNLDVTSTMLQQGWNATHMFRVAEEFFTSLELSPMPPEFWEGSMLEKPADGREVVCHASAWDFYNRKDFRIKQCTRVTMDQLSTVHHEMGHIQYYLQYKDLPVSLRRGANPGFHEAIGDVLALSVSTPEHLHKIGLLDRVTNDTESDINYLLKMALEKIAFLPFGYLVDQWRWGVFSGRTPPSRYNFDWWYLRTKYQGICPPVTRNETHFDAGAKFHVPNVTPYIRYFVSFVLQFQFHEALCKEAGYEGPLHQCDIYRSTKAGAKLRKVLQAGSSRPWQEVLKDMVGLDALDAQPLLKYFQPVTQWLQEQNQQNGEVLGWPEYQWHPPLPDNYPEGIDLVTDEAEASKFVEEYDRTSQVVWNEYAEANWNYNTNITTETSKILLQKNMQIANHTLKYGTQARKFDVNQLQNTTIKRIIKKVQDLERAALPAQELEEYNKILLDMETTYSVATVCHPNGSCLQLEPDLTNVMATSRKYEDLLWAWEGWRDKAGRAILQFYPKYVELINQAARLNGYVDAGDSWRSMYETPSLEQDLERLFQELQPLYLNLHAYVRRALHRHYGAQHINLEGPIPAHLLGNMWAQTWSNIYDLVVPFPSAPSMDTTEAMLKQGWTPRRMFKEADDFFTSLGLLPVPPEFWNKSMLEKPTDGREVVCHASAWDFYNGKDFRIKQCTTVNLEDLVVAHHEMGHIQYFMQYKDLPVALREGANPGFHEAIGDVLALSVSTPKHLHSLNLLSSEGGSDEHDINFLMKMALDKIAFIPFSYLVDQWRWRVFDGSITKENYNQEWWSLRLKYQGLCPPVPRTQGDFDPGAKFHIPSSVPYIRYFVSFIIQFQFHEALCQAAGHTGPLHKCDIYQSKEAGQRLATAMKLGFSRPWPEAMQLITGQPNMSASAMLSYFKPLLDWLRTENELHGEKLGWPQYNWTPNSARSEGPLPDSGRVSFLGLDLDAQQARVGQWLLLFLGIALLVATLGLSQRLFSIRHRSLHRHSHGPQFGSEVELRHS

Anti-ACE activity %: 78.0%
Substance: Ala-Leu-Pro-Met (ALPM; printed: Ala-Leu-Pro-Met) [anti-ACE peptide released by the strain L. helveticus A1, purified from fermented milk]
